Here are results for one molecule from patent US20040259787A1 (published 2004).

This assay addresses T1, C1q (UniProt P02745 23-245; P02746 28-253; P02747 29-245, radioiodinated (Bolton & Hunter) in the assay of FIG. 2).
T1 construct: mature; Purified native C1q; also called native fluid-phase C1q; radioiodinated C1q
As to the kind of experiment: solid-phase domain, radioiodinated C1q, low salt.

T1 sequence (P02745 23-245, chain 1 of 3): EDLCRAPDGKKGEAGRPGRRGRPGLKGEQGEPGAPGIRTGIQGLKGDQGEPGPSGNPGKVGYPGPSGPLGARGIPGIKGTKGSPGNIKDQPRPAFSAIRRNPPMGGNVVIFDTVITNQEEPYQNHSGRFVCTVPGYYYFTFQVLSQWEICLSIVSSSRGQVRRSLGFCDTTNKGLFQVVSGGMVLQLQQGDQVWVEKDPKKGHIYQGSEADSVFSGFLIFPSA
T1 sequence (P02746 28-253, chain 2 of 3): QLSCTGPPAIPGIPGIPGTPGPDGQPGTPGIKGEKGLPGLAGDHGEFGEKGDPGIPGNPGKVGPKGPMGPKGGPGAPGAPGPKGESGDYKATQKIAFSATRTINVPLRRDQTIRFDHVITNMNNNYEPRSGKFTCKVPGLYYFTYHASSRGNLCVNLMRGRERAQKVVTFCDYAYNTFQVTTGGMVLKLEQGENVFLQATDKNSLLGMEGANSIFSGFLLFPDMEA
T1 sequence (P02747 29-245, chain 3 of 3): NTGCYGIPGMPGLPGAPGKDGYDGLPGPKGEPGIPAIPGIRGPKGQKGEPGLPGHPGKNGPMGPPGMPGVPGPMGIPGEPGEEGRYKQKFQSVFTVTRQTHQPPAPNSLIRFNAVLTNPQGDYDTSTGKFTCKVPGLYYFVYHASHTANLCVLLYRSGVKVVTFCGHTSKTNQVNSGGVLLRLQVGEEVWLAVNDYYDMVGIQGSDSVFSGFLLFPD
Description: Microtitre plates were coated with the N-, P-, C- and CUB-domains and with three controls, cC1qR, BSA and Thioredoxin, (8 mg/ml in 35 mM NaHCO3, 15 mM Na2CO3 pH 9.6) for 2 hr at 37° C. Non-specific interactions were blocked by incubation with 10 mM potassium phosphate, 0.5 mM EDTA pH 7.4 containing BSA (10 mg/ml). Any free —SH groups in the samples, due to the presence of the thioredoxin fusion protein, were blocked by a brief washing step using the phosphate buffer containing 2 mM iodoacetamide. […] Wells were washed three times with phosphate buffer and bound radioactivity eluted with 100 ml 4M NaOH and measured.

B1: recombinant C-domain of human cC1qR/CRT, thioredoxin fusion protein (other)
chain: DNFGVLGLDLWQVKSGTIFDNFLITNDEAYAEEFGNETWGVTKAAEKQMKDKQDEEQRLKEEEEDKKRKEEEEAEDKEDDEDKDEDEEDEEDKEEDEEEDVPGQAKDEL
notes: not shown: thioredoxin fusion partner from plasmid pTrxfus (Invitrogen), expressed in E. coli
Turning to B1, the binding result is reported as “no binding”.
